Assay results published in IntAct's records for PubMed 12601044.

B1: Alpha-crystallin B chain (Homo sapiens), P02511 (parent)
chain: MDIAIHHPWIRRPFFPFHSPSRLFDQFFGEHLLESDLFPTSTSLSPFYLRPPSFLRAPSWFDTGLSEMRLEKDRFSVNLDVKHFSPEELKVKVLGDVIEVHGKHEERQDEHGFISREFHRKYRIPADVDPLTITSSLSSDGVLTVNGPRKQVSGPERTIPITREEKPAVTAAPKK
partner: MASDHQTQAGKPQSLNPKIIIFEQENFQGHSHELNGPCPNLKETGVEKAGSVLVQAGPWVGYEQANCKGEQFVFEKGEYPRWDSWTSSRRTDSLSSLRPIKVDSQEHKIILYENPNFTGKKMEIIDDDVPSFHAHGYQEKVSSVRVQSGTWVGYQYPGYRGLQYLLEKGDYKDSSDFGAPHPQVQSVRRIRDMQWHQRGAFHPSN
B2: Alpha-crystallin A chain (Homo sapiens), P02489 (parent)
chain: MDVTIQHPWFKRTLGPFYPSRLFDQFFGEGLFEYDLLPFLSSTISPYYRQSLFRTVLDSGISEVRSDRDKFVIFLDVKHFSPEDLTVKVQDDFVEIHGKHNERQDDHGYISREFHRRYRLPSNVDQSALSCSLSADGMLTFCGPKIQTGLDATHAERAIPVSREEKPTSAPSS
partner: B1 chain
B3: Gamma-crystallin C (Homo sapiens), P07315 (parent)
chain: MGKITFYEDRAFQGRSYETTTDCPNLQPYFSRCNSIRVESGCWMLYERPNYQGQQYLLRRGEYPDYQQWMGLSDSIRSCCLIPQTVSHRLRLYEREDHKGLMMELSEDCPSIQDRFHLSEIRSLHVLEGCWVLYELPNYRGRQYLLRPQEYRRCQDWGAMDAKAGSLRRVVDLY
partner: B1 partner
B4: Alpha-crystallin A chain (Homo sapiens), P02489 (parent)
chain: B2 chain
B5: Gamma-crystallin C (Homo sapiens), P07315 (parent)
chain: B3 chain
partner: B1 chain
B6: Alpha-crystallin B chain (Homo sapiens), P02511 (parent)
chain: B1 chain
partner: B2 chain
B7: Alpha-crystallin A chain (Homo sapiens), P02489 (parent)
chain: B2 chain
partner: B1 partner

Variants of: B1
Conditions: with crbb2_human CRYBB2, P43320

| Variant | effect of a mutation on the interaction |
| --- | --- |
| MDIAIHHPWIRRPFFPFHSPSRLFDQFFGEHLLESDLFPTSTSLSPFYLRPPSFLRAPSWFDTGLSEMRLEKDRFSVNLDVKHFSPEELKVKVLGDVIEVHGKHEERQDEHGFISREFHGKYRIPADVDPLTITSSLSSDGVLTVNGPRKQVSGPERTIPITREEKPAVTAAPKK [R120G] | increasing interaction |

Variants of: B2
Conditions: with cryab_human CRYAB

| Variant | effect of a mutation on the interaction |
| --- | --- |
| MDVTIQHPWFKRTLGPFYPSRLFDQFFGEGLFEYDLLPFLSSTISPYYRQSLFRTVLDSGISEVRSDRDKFVIFLDVKHFSPEDLTVKVQDDFVEIHGKHNERQDDHGYISREFHCRYRLPSNVDQSALSCSLSADGMLTFCGPKIQTGLDATHAERAIPVSREEKPTSAPSS [R116C] | increasing interaction |

Variants of: B3
Conditions: with crbb2_human CRYBB2, P43320

| Variant | effect of a mutation on the interaction |
| --- | --- |
| T5P | disrupting interaction |

Variants of: B4
Conditions: with crgc_human CRYGC

| Variant | effect of a mutation on the interaction |
| --- | --- |
| MDVTIQHPWFKRTLGPFYPSRLFDQFFGEGLFEYDLLPFLSSTISPYYRQSLFRTVLDSGISEVRSDRDKFVIFLDVKHFSPEDLTVKVQDDFVEIHGKHNERQDDHGYISREFHCRYRLPSNVDQSALSCSLSADGMLTFCGPKIQTGLDATHAERAIPVSREEKPTSAPSS [R116C] | disrupting interaction |

Variants of: B5
Conditions: with cryab_human CRYAB

| Variant | effect of a mutation on the interaction |
| --- | --- |
| T5P | disrupting interaction |

Variants of: B6
Conditions: with cryaa_human CRYAA

| Variant | effect of a mutation on the interaction |
| --- | --- |
| MDIAIHHPWIRRPFFPFHSPSRLFDQFFGEHLLESDLFPTSTSLSPFYLRPPSFLRAPSWFDTGLSEMRLEKDRFSVNLDVKHFSPEELKVKVLGDVIEVHGKHEERQDEHGFISREFHGKYRIPADVDPLTITSSLSSDGVLTVNGPRKQVSGPERTIPITREEKPAVTAAPKK [R120G] | decreasing interaction |

Variants of: B7
Conditions: with crbb2_human CRYBB2, P43320

| Variant | effect of a mutation on the interaction |
| --- | --- |
| MDVTIQHPWFKRTLGPFYPSRLFDQFFGEGLFEYDLLPFLSSTISPYYRQSLFRTVLDSGISEVRSDRDKFVIFLDVKHFSPEDLTVKVQDDFVEIHGKHNERQDDHGYISREFHCRYRLPSNVDQSALSCSLSADGMLTFCGPKIQTGLDATHAERAIPVSREEKPTSAPSS [R116C] | disrupting interaction |
